Biological target: TSH receptor (solubilized porcine thyroid membrane) (porcine (endogenous in thyroid membrane)) (UniProt Q8SPP9)
Experiment: radioligand binding

Chain of UniProt Q8SPP9 (Q8SPP9 22-764): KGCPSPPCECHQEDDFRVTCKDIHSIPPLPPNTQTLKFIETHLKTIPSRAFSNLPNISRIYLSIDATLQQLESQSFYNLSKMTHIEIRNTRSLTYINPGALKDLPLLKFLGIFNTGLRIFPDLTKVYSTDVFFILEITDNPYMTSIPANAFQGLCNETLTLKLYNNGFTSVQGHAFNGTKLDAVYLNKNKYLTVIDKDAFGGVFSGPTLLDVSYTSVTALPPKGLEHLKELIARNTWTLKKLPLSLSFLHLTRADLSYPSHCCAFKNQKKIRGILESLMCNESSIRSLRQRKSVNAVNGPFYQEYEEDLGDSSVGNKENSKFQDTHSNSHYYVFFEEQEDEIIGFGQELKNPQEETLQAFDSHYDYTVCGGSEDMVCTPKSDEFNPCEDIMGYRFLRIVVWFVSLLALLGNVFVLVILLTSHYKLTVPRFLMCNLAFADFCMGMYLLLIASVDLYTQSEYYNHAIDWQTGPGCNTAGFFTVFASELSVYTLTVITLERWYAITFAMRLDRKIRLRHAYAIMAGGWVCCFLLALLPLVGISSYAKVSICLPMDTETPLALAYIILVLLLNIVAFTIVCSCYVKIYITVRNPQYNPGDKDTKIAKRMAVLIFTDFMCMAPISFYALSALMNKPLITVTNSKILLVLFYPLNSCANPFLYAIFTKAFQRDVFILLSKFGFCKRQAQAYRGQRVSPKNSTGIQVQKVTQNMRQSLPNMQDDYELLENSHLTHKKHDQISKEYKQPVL

## 125I-labelled bTSH (bovine thyroid-stimulating hormone) (from UniProt P01217 25-120; P01223 21-132) (ligand)
  cpm of bound 125I-bTSH (TSH receptor present, heat-treated normal pooled IgG): 6950 cpm
  cpm of bound 125I-bTSH (TSH receptor present, normal pooled IgG): 7810 cpm
  cpm of bound 125I-bTSH, T B (Bo): 7000 cpm

From publication PMC4532127
